Laboratory results taken from US20250027068.

B1: PRT-581 (protein)
chain: MANQEIRYSKATPKTITSVWTKGVTPPENFIYNEDVLHAPYLANQGWYDITKTFNGKDDLLCGAATAGNMLHWWFDQNKEQIERYLKEHPEKQKINFNGEQMFDVKEAIDTKDSQTNSKLFEYFKDKAFPYLSTKHLGVFPDHVIDMFINGYRLSLTNHGPTPVKEQTKDPRGGIFDAVFTRGDQSKLLTSRHDFKEKTLNEISDLIKQELTEGKALGLSHTYANVRINHVINLWGADFDAEGNLEAIYVTDSDSNASIGMKKYYVGVNSAGKVAISAKEIEGDNIGAQVLGLFTLSTGKDIWEQTNLEHHHHHH
B2: PRT-255 (protein)
chain: MVTSVWTKGVTPPTNFTYGEDVLHAPYVANQGWYDITKTFNGKDDLLCGAATAGNMLHWWFDQNKEQIENYLKKHPEKQKINFNGEQMFDVKEAIDTKDSQLDSKLFEYFLEKAFPNLSTKHLGVFPDHVIDMFINGYRLSLLNHGPTPVKRGSKDPRGGIFDAVFTRGDQSKLLTNRHDFKEKTLKEISDLIKQELTEGKALGISHTYANVGINHVINLWGADFDAEGNLEAIAVTDSDSNASIGMKKYFVGVNSSGKVAISAKEIEEDNIGAQVLGLFTLSTGQDIWNQTN
B3: PRT-248 (protein)
chain: MVTSVWTKGVTPPTNFTYGEDVLHAPYVANQGWYDITKTFNGKDDLLCGAATAGNMLHWWFDQNKEQIENYLKKHPEKQKINFNGEQMFDVKEAIDTKDSQLDSKLFEYFKEKAFPNLSTKHLGVFPDHVIDMFINGYRLSLLNHGPTPVKRGSKDPRGGIFDAVFTRGDQSKLLTNRHDFKEKTLKEISDLIKQELTEGKALGISHTYANVRINHVINLWGADFDAEGNLEAIYVTDSDSNASIGMKKYFVGVNSSGKVAISAKEIEEDNIGAQVLGLFTLSTGQDIWNQTN
B4: PRT-263 (protein)
chain: MVTSVWTKGVTPPTNFTYGEDVLHAPYVANQGWYDITKLFNGKDNLLCGAATAGNMLHWWFDQNKEQIENYLKKHPEKQKINFNGEQLFDVKEAIDTKDSQLDSKLFEYFLEKAFPNLSTKHLGVFPDHVIDMFINGYRLSLLNHGPTPVKRGSKDKRGGIFDAVFTRGVQSKLLTNRHDFKEKTLKEISDLIKQELTEGKALGISHTYANGRINHVINLWGADFDAEGNLEAIAVTDSDTNASIGMKKYFVGVNSSGKVAISAKEIEEDNIGAQVLGLFTLSTGQDIWNQTN
B5: PRT-542 (protein)
chain: MANQEIRYSKNENPNVTIKWVHGIGEPTQAEKEKIEFWWYETTTTKFFNNRKVDHLGDGNQCWAKTDSNMLHWWFVQNEENINQYIEKKNITGKINFNGEQMFDVKEGIDDNQEPEKSYIANTFRTKKAHNLSTKHKGDYIINGLSWYLYGLNNFKNAHGPTPVKKKPKFYGPALFKDVFNRGDGNTPIIVETDFKEYTKKEFEDTLSAALDSKKAVGINIYGSNVDYQHAITLWGAAFDEEENIIAIYVVDNNFKFENRIFPYGIWYQKEGRPYLFNYEINSFVKNRYVGEITTLDKGEAQWQETNLEHHHHHH
B6: PRT-538 (protein)
chain: MANQEIRYSSDSEWANKKVWVYGITPPEEGAWKYSTYYLPWKKEYGWYDCNKRNPTADGMMCWAATASNLLHWWIAQNKEYIDLYGDKYKGPDKINFNGEQMFDVKEYIDPLDKPQESDIFQCFIDKSFADLSTKHEAGYGDEGINWFIHGIIPSSPAHGPTPVKLRKPYNPAGYFKDVFPRGDGVKLLSNNGDFKELGKERFNETIKDALKNKKGIGLSIGPVNVRSGHVVTMWGAEFDENGDVSYIYIADNNDRWGVGCIRYQIVYEEGGTYTCYKTEIINEDRPIPINRLVTLELGEEYWKQTNLEHHHHHH
B7: PRT-528 (protein)
chain: MANQEIRYSEETPKTITSVWTKGVTPPTDFIQNEDVLHAPYIANQGWYDITKTFNGKDDLLCGAATAGNMLHWWFDQNKEEIENYLKKHPEKQKINFNGEQMFDVKEAIDTKDSQTDSALFEYFKDKAFPNLSTKHLGVMPDLVLDMFINGYYLSLGKHGPTPVKRGTKDPRGGIFDAVFTRGDQSKLLTARHDFKEKTLNEISDLIKQELTEGKALALSHTYANVRINHVINLWGADFNSEGNLEAIYVTDSDSNASIGMKKYYVGVNAAGKVAISAKEIEGDNIGAQVLGLFTLSTGQDIWEQTNLEHHHHHH
B8: PRT-580 (protein)
chain: MANQEIRYSEETPKTITSVWTKGVTPPTDFIKNEDVFHAPYVANQGWYDITKTFNGKDDLLCGAATAGNMLHWWFDQNKEEIERYLKKHPEKQKINFNGEQMFDVKEAIDTKDSQTNSKLFEYFKDKAFPYLSTKHLGVFPDHVIDMFINGYRLSLTNHGPTPVKRGTKDPRGGIFDAVFTRGDQSKLLTSRHDFKEKTLKEISDLIKQELQEGKALGLSHTYANVRINHVINLWGADFDSEGNLEAIYVTDSDSNASIGMKKYYVGVNSAGKVAISAKEIEDDNIGAQVLGLFTLSTGKDIWEQTNLEHHHHHH
B9: PRT-574 (protein)
chain: MANQEIRYSEETPKTITSVWTKGVTPPTDFIYNEDVLHAPYIANQGWYDITKTFNGKDDLLCGAATAGNMLHWWFDQNKEQIERYLKKHPEKQKINFNGEQMFDVKEAIDTKDSQTNSKLFEYFKDKAFPYLSTKHLGVFPDHVIDMFINGYRLSLTNHGPTPVKEQTKDPRGGIFDAVFTRGDQSKLLTSRHDFKEKTLNEISDLIKQELTEGKALGLSHTYANVRINHVINLWGADFDAEGNLEAIYVTDSDSNASIGMKKYYVGVNSAGKVAISAKEIEGDNIGAQVLGLFTLSTGKDIWEQTNLEHHHHHH
B10: PRT-271 (protein)
chain: MVTSVWTKGVTPPTDFIYGEDVLHAPYKAGQGWYDITKLFNGKDDLLCGAATAGNMLHWWFDQNKEQIENYLKKHPEKQKINFNGEQMFDVKEAIDTKDSQLDSKLFDYFKEKAFPYLSTKHLGVFPDHVIDMFINGYRLSLTNHGPTPVKRGSKDPRGGIFDAVFTRGDQSKLLTNRHDLKNKTLKEISDLIKQELTEGKALGISHTYANVRINHVINLWGADFDAEGNLEAIYVTDSDSNPSIGMKKYFVGVNSSGKVAISAKEIEEDNIGAQVLGLFTLSTGQDIWNQTN
B11: PRT-599 (protein)
chain: MANQEIRYSEETPSTITSVWTKGVTPPTDFIQNEDVLHAPYIANQGWYDITKTFNGKDDLLCGAATAGNMLHWWFDQNKEQIENYLKKHPEKQKINFNGEQMFDVKEAIDTKDSQTDSALFEYFKDKAFPYLSTKHLGVFPDHVIDMFINGYRLSLTNHGPTPVKRGTKDPRGGIFDAVFTRGDQSKLLTSRHDFKEKTLNEISDLIKQELTEGKALGLSHTYANVRINHVINLWGADFNAEGNLEAIYVTDSDSNASIGMKKYYVGVNSAGKVAISAKEIKGDNIGAQVLGLFTLSTGQDIWNQTNLEHHHHHH
B12: PRT-561 (protein)
chain: MANQEIRYSEETPSTITSVWTKGVTPPTQFIYNEDVFHAPYIANQGWYDITKTFNGKDDLLCGAATAGNMLHWWFDQNKEQIENYLKKHPEKQKINFNGEQMFDVKEAIDTKDSQTDSKLFNYFKDKAFPYLSTKHLGVFPDHVIDMFINGYRLSLTNHGPTPVKRQTKDPRGGIFDAVFTRGDQSKLLTSRHDFKEKTLNEISDLIKQELTEGKALGLSHTYANVRINHVINLWGADFDAEGNLEAIYVTDSDSNASIGMKKYYVGVNSAGKVAISAKEIEGDNIGAQVLGLFTLSTGQDIWQQTNLEHHHHHH
B13: PRT-247 (protein)
chain: MVTSVWTKGVTPPANFTQGEDVFHAPYVANQGWYDITKLFNGKDDLLCGAATAGNMLHWWFDQNKDQIKRYLEEHPEKQKINFNGEQMFDVKEAIDTKNHQLDSKLFEYFLEKAFPYLSTKHLGVFPDHVIDMFINGYRLSLTNHGPTPVKEGSKDPRGGIFDAVFTRGDQSKLLTSRHDFKEKNLKEISDLIKKELTEGKALGLSHTYANVRINHVINLWGADFDSNGNLKAIAVTDSDSNASIGMKKYFVGVNSSGKVAISAKEIKEDNIGAQVLGLFTLSTGQDSWNQTN
B14: PRT-588 (protein)
chain: MRNQTTTYSEVTPSHITSVWTKGVTPPEQFIQGEDVFHAPYIANQGWYDITKTFNGKDDLLCGAATAGNMLHWWFDQNKEQIENYLKKHPEKQKIMFNNEEMFDLREAINTKDSQTDSALFSYFKDKAFPNLSARRLGVMPDHVLDMFINGYYLNVGNTDKTDVNRGTKDLRGGIFDAVFTRGDQSKLLTARHDLKNKTLKEISDLIKQELTEGKALALSHTYANVRINHVINLWGADFDAEGNLEAIYVTDSDSNASIGMKKYYVGVNSAGKVAISAKKIEGDNIGAQVLGLFTLSTGQDIWQQTNLEHHHHHH

Biological target: pooled human IgG (human IgG1, 2, 3 and 4)

Row | Protein | Enzyme Activity Endpoint Assay: Fab′2 | Enzyme Activity Endpoint Assay: Fc | Enzyme Activity Endpoint Assay: IgG | Enzyme Activity Endpoint Assay: scIgG
1 | B1 | 660 ng/µL | 365 ng/µL | 0 ng/µL | 0 ng/µL
2 | B2 | 58 ng/µL | 178 ng/µL | 75 ng/µL | 525 ng/µL
3 | B3 | 654 ng/µL | 370 ng/µL | 0 ng/µL | 0 ng/µL
4 | B4 | 0 ng/µL | 27 ng/µL | 986 ng/µL | 0 ng/µL
5 | B5 | 0 ng/µL | 0 ng/µL | 1470 ng/µL | 0 ng/µL
6 | B6 | 5 ng/µL | 0 ng/µL | 1160 ng/µL | 0 ng/µL
7 | B7 | 14 ng/µL | 114 ng/µL | 354 ng/µL | 691 ng/µL
8 | B8 | 566 ng/µL | 282 ng/µL | 0 ng/µL | 0 ng/µL
9 | B9 | 660 ng/µL | 357 ng/µL | 0 ng/µL | 227 ng/µL
10 | B10 | 563 ng/µL | 322 ng/µL | 0 ng/µL | 0 ng/µL
11 | B11 | 930 ng/µL | 310 ng/µL | 0 ng/µL | 0 ng/µL
12 | B12 | 606 ng/µL | 405 ng/µL | 0 ng/µL | 0 ng/µL
13 | B13 | 0 ng/µL | 81 ng/µL | 308 ng/µL | 279 ng/µL
14 | B14 | 658 ng/µL | 361 ng/µL | 0 ng/µL | 0 ng/µL
